Assay results taken from paper PMC10899662, “TopBP1 utilises a bipartite GINS binding mode to support genome replication” (Nature Communications, 2024).

Legend:
GINS = experiment: Competition of PolE2-N with TopBP1 for immobilised GINS; type: binding; conditions: 150 mM NaCl; ten times molar excess of PolE2-N
Excerpt: (§1) We next explored the relationship between the interactions of TopBP1 and DNA Polε with GINS. These proteins are part of the recently characterised metazoan pre-LC[37]–[40]. […] These pre-LC models are less informative on how DNA Polε affects the TopBP1-GINS interaction. The N-terminal region of PolE2 (PolE2-N; aa 1–75) binds GINS mainly at the Psf1-B domain, with minor interactions with residues in the A-domain that partly overlap with the TopBP1-BRCT4 interaction surface (Fig. 7a–c). To test if the Psf1-B domain is required for TopBP1 interaction, we did pulldowns with GINS lacking the Psf1-B domain (Psf1-ΔB). […] This could be due to a residual affinity of BRCT4 for Psf1-ΔB or due to the GINI-Psf1 interaction. We therefore analysed specifically the interaction of GINS with BRCT4 using the TopBP1-Gcc mutant. […] The moderate effect of the B domain deletion on BRCT4 binding is consistent with the partial overlap of the BRCT4 and PolE2 binding sites in Psf1. […] Together, in pre-LC, TopBP1 likely binds GINS through the GINI region, potentially also involving a residual affinity of BRCT4 for GINS despite the presence of DNA Polε. TopBP1 and GINS are likely further stabilised in pre-LCs via their interactions with DONSON[37],[38],[41]. […]

[1] = tested on: GINS lacking the Psf1-B domain (Psf1-ΔB); experiment: Pulldown of TopBP1 versions by GINS with Psf1-ΔB compared to GINS-WT; type: binding; conditions: GINS-WT vs Psf1-ΔB
Excerpt: as §1

effect of Psf1-B domain deletion on TopBP1 binding, 100 mM NaAc [1]	Molecule	competition by PolE2-N in stringent pulldown conditions (GINS)
the B domain had no influence	TopBP1-BRCT0-5-WT: recombinant TopBP1 amino acids 1–766, strep-tagged (protein, left off: Strep, C-terminal, kept, recombinant TopBP1 amino acids 1–766, strep-tagged) MSRNDKEPFFVKFLKSSDNSKCFFKALESIKEFQSEEYLQIITEEEALKIKENDRSLYICDPFSGVVFDHLKKLGCRIVGPQVVIFCMHHQRCVPRAEHPVYNMVMSDVTISCTSLEKEKREEVHKYVQMMGGRVYRDLNVSVTHLIAGEVGSKKYLVAANLKKPILLPSWIKTLWEKSQEKKITRYTDINMEDFKCPIFLGCIICVTGLCGLDRKEVQQLTVKHGGQYMGQLKMNECTHLIVQEPKGQKYECAKRWNVHCVTTQWFFDSIEKGFCQDESIYKTEPRPEAKTMPNSSTPTSQINTIDSRTLSDVSNISNINASCVSESICNSLNSKLEPTLENLENLDVSAFQAPEDLLDGCRIYLCGFSGRKLDKLRRLINSGGGVRFNQLNEDVTHVIVGDYDDELKQFWNKSAHRPHVVGAKWLLECFSKGYMLSEEPYIHANYQPVEIPVSHKPESKAALLKKKNSSFSKKDFAPSEKHEQADEDLLSQYENGSSTVVEAKTSEARPFNDSTHAEPLNDSTHISLQEENQSSVSHCVPDVSTITEEGLFSQKSFLVLGFSNENESNIANIIKENAGKIMSLLSRTVADYAVVPLLGCEVEATVGEVVTNTWLVTCIDYQTLFDPKSNPLFTPVPVMTGMTPLEDCVISFSQCAGAEKESLTFLANLLGASVQEYFVRKSNAKKGMFASTHLILKERGGSKYEAAKKWNLPAVTIAWLLETARTGKRADESHFLIENSTKEERSLETEITNGINLNSDTAEHP	largely resistant to PolE2 competition
the B domain had no influence	TopBP1-B4mut: Val590, Thr606 and Val610 mutated to glutamate, arginine and glutamate (protein, left off: Strep, C-terminal, kept) MSRNDKEPFFVKFLKSSDNSKCFFKALESIKEFQSEEYLQIITEEEALKIKENDRSLYICDPFSGVVFDHLKKLGCRIVGPQVVIFCMHHQRCVPRAEHPVYNMVMSDVTISCTSLEKEKREEVHKYVQMMGGRVYRDLNVSVTHLIAGEVGSKKYLVAANLKKPILLPSWIKTLWEKSQEKKITRYTDINMEDFKCPIFLGCIICVTGLCGLDRKEVQQLTVKHGGQYMGQLKMNECTHLIVQEPKGQKYECAKRWNVHCVTTQWFFDSIEKGFCQDESIYKTEPRPEAKTMPNSSTPTSQINTIDSRTLSDVSNISNINASCVSESICNSLNSKLEPTLENLENLDVSAFQAPEDLLDGCRIYLCGFSGRKLDKLRRLINSGGGVRFNQLNEDVTHVIVGDYDDELKQFWNKSAHRPHVVGAKWLLECFSKGYMLSEEPYIHANYQPVEIPVSHKPESKAALLKKKNSSFSKKDFAPSEKHEQADEDLLSQYENGSSTVVEAKTSEARPFNDSTHAEPLNDSTHISLQEENQSSVSHCVPDVSTITEEGLFSQKSFLVLGFSNENESNIANIIKENAGKIMSLLSRTEADYAVVPLLGCEVEARVGEEVTNTWLVTCIDYQTLFDPKSNPLFTPVPVMTGMTPLEDCVISFSQCAGAEKESLTFLANLLGASVQEYFVRKSNAKKGMFASTHLILKERGGSKYEAAKKWNLPAVTIAWLLETARTGKRADESHFLIENSTKEERSLETEITNGINLNSDTAEHP	
